Test results from patent US20260234242A1 (HAINAN SIMCERE ZAIMING PHARMACEUTICAL, published 2026).

T1: human CDH6 with EC5 removed, on HEK293T cells (HEK293T-hCDH6-EC5 deletion) (human, UniProt P55285 54-790)
T1 construct: Signal peptide not removed here
T1 sequence: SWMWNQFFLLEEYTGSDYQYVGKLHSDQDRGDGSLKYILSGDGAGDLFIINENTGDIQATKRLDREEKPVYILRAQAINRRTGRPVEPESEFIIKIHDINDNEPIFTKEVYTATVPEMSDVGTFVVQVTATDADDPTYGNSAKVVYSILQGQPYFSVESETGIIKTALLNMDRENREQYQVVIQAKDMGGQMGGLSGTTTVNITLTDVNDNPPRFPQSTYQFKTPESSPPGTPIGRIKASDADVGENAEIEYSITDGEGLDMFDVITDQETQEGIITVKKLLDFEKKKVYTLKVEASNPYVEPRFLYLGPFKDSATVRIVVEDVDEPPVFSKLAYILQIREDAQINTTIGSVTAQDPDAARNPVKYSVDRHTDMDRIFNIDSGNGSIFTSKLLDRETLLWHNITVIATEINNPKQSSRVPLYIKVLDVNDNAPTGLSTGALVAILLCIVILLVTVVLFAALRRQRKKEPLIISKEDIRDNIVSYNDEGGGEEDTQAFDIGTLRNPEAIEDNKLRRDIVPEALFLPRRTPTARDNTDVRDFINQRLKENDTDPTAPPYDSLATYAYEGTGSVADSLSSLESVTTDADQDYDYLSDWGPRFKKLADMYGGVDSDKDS

T2: human CDH6 with EC1 removed, on HEK293T cells (HEK293T-hCDH6-EC1 deletion) (human, UniProt P55285 160-790)
T2 construct: Signal peptide not removed here
T2 sequence: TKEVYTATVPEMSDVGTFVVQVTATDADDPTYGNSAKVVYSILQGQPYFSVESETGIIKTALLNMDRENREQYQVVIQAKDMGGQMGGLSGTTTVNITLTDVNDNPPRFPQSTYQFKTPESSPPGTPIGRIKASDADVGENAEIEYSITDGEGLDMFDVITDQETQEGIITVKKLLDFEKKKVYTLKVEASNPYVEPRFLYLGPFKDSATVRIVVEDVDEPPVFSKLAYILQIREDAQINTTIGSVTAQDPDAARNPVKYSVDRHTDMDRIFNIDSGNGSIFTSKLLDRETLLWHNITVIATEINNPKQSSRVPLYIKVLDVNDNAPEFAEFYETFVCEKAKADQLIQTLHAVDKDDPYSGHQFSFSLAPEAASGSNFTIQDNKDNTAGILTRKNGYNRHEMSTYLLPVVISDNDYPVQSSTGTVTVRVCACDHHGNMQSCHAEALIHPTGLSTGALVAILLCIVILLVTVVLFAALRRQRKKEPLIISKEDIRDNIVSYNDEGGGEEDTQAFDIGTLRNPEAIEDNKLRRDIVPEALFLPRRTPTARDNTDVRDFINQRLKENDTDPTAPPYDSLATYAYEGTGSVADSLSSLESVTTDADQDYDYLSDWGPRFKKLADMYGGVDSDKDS

T3: his-tagged human CDH6 extracellular region protein (hCDH6 ECD-his) (human, UniProt P55285 19-615)
T3 construct: also called Human CDH6-his; hCDH6-his; not shown: his tag
T3 sequence: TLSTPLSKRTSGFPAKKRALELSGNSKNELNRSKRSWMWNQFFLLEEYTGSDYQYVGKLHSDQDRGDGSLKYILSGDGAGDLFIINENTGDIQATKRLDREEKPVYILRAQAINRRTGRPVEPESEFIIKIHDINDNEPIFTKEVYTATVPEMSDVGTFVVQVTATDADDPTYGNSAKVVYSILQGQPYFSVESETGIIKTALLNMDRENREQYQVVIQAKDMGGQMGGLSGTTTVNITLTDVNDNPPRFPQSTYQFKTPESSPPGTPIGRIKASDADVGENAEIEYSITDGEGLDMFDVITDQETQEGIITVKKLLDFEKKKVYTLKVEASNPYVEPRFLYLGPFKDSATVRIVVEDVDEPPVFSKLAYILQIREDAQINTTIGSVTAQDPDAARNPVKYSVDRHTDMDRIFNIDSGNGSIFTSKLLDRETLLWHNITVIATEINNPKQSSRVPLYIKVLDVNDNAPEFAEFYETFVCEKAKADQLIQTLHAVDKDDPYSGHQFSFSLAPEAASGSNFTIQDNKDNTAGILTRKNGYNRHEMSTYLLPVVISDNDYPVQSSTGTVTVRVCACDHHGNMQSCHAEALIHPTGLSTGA

B1: CHI-CDH6-14 (antibody, human IgG1, kappa, V domains shown)
VH: QIQLQQSGPELVKPGTSVKISCKASGYTFTDNYINWVRQRPGQGLEWIGWIYPGTGNSYYNEKFKGKATLTVDTSSSTAYMQFSSLTSEDSAVYLCASSYGDSFDYWGQGTTLTVSS
VL: DIQMTQTTSSLSASLGNRVTISCRASQDIRNYLNWYQQKPDGTFKLLISYTSRLHSGVPSRFSGSGSGTDYSLTVSNLEPEDIATYYCQQYSQLPWTFGGGSRLEIKR
notes: also called CHI-hCDH6-14; CH1-CDH6-14
B2: CHI-CDH6-12 (antibody, human IgG1, kappa, V domains shown)
VH: EVNLVESGGGLVQPGDSLTLSCSASGFTFTDYYMSWVRQFPGKALEWLALIRNKANSYTTEYSASVKGRFTISRDNSQSILYLQMNALRAEDSATYYCARDSYYSHDGFAYWGQGTLVTVSA
VL: DIVLTQSPASLAVSLGQRATISCRASKSVSTSSYTYMHWYQQKPGQPPKLLIKFASYLESGVPARFSGSGSGTDFTLNIHPVEEEDAATYYCQHSREFPFTFGTGTKLEIKR
notes: also called CH1-CDH6-12; chimeric antibody of murine CDH6-12
B3: CHI-CDH6-1 (antibody, human IgG1, kappa, V domains shown)
VH: QVQLQQPGAELVRPGSSVKLSCKASGYTFTNYWMHWVKQRPIEGLEWIGDIDPSHSETHYTQKFKDKATLTVDKSSSTAYMQLSSLTSEDSAVYYCARGDLGRFDYWGQGTTLTVSS
VL: DIVLTQSPASLAVSLGQRATISCRASESVSIHGTHLMHWYQQKSGQPPKLLIYAASNLESGVPARFSGSGSETDFTFNIHPVEEEDAATYFCQQSFEDPWTFGGGTKLEIKR
notes: also called CHI-hCDH6-1; CH1-CDH6-1
B4: DS-H01L02 (antibody, human IgG1, kappa, V domains shown)
VH: EVQLVQSGAEVKKPGASVKVSCKASGYTFTRNFMHWVRQAPGQGLEWMGWIYPGDGETEYAQKFQGRVTITADTSTSTAYMELSSLRSEDTAVYYCARGVYGGFAGGYFDFWGQGTLVTVSS
VL: DIQMTQSPSSLSASVGDRVTITCKASQNIYKNLAWYQQKPGKAPKLLIYDANTLQTGVPSRFSGSGSGSDFTLTISSLQPEDFATYFCQQYYSGWAFGQGTKVEIKR
notes: Positive control, variable regions from WO2018212136A1; also called positive control anti-human CDH6 antibody
B5: NOV0712 (antibody, human IgG1, kappa, V domains shown)
VH: QVQLLESGGGLVQPGGSLRLSCAASGFTFSSHGMHWVRQAPGKGLEWVSVISGSGSNTGYADSVKGRFTISRDNSKNTLYLQMNSLRAEDTAVYYCARQWGSYAFDSWGQGTLVTVSS
VL: DIQMTQSPSSLSASVGDRVTITCRASQSISSYLNWYQQKPGKAPKLLIYAVSTLQSGVPSRFSGSGSGTDFTLTISSLQPEDFATYYCQQSGTFPPTTFGQGTKVEIKR
notes: as for B4

Columns and labels:
[1] = molecular target: T1, human CDH6 with EC5 removed, on HEK293T …; experiment: FACS, HEK293T-hCDH6-EC5 deletion cells
From the text: To confirm the binding epitope of the CDH6 antibody, the sequences after removal of these 5 regions were constructed into pcDNA3.1 vectors (purchased from Youbio, Cat. No. VT1001), and transfected into HEK293T cells (purchased from Cell Bank of Chinese Academy of Sciences, Cat. No. SCSP-502) to obtain 5 CDH6 truncated cell lines: HEK293T-hCDH6-EC1 deletion, HEK293T-hCDH6-EC2 deletion, HEK293T-hCDH6-EC3 deletion, HEK293T-hCDH6-EC4 deletion, and HEK293T-hCDH6-EC5 deletion.
The binding activity of the CDH6 chimeric antibodies to these 5 cell lines was assayed by FACS.

[2] = molecular target: T2, human CDH6 with EC1 removed, on HEK293T …; experiment: FACS, HEK293T-hCDH6-EC1 deletion cells
[3] = molecular target: T3, his-tagged human CDH6 extracellular …; experiment: SPR Biacore 8K, antibody captured on Protein A
Experimental: The affinity of the antibody for the antigen was determined by a multi-cycle kinetic method using a BIAcore 8K instrument. In each cycle, the antibody to be tested was captured using a Protein A chip (purchased from GE, Cat. No. 29-1275-56), and then the antigen human CDH6 protein (hCDH6-his, conventionally synthesized) was injected. The association and dissociation processes of the antibody with the antigen protein were recorded, and finally, the chip was regenerated using Glycine pH 1.5, wherein the mobile phase was HBS-EP+ (10 mM HEPES, 150 mM NaCl, 3 mM EDTA, 0.05% surfactant P20, and 1 mM Ca), the flow rate was 30 μL/min, the association time was 240 s, the dissociation time was 300 s, the regeneration time was 30 s, the detection temperature was 25° C., and the antigen concentration was 31.25-1000 nM. The data were analyzed using Biacore 8K analysis software (version No. 2.0) based on the 1:1 binding model to fit the antibody-antigen binding kinetic parameters, including the association rate constant ka, the dissociation rate constant kd, and the equilibrium dissociation constant KD. The affinity values of the control antibody DS-H01L02 were undetectable. Antibodies not shown in the table had undetectable affinity values.

Row | Binder | Max MFI [1] | Max MFI [2] | Kd [3] | koff [3] | kon [3] | binding result [1]
1 | B1 | 4040 MFI | 7210 MFI | – | – | – | –
2 | B2 | 4490 MFI | 9860 MFI | – | – | – | –
3 | B3 | 14300 MFI | 84 MFI | 8.87 nM | 0.00585 s⁻¹ | 659000 M⁻¹ s⁻¹ | –
4 | B4 | 1530 MFI | 5290 MFI | – | – | – | –
5 | B5 | – | 23600 MFI | 53.5 nM | 0.00267 s⁻¹ | 49900 M⁻¹ s⁻¹ | no binding (tested: MFI ~1.5 times that of hIgG1 (81))
